B1: Cdt1 (natural protein)
chain: MSGTANSRRKEVLRVPVIDLNRVSDEEQLLPVVRAILLQHDTFLLKNYANKAVLDALLAGLTTKDLPDTSQGFDANFTGTLPLEDDVWLEQYIFDTDPQLRFDRKCRNESLCSIYSRLFKLGLFFAQLCVKSVVSSAELQDCISTSHYATKLTRYFNDNGSTHDGADAGATVLPTGDDFQYLFERDYVTFLPTGVLTIFPCAKAIRYKPSTMATTDNSWVSIDEPDCLLFHTGTLLARWSQGMHTTSPLQIDPRANIVSLTIWPPLTTPISSKGEGTIANHLLEQQIKAFPKVAQQYYPRELSILRLQDAMKFVKELFTVCETVLSLNALSRSTGVPPELHVLLPQISSMMKRKIVQDDILKLLTIWSDAYVVELNSRGELTMNLPKRDNLTTLTNKSRTLAFVERAESWYQQVIASKDEIMTDVPAFKINKRRSSSNSKTVLSSKVQTKSSNANALNNSRYLANSKENFMYKEKMPDSQANLMDRLRERERRSAALLSQRQKRYQQFLAMKMTQVFDILFSLTRGQPYTETYLSSLIVDSLQDSNNPIGTKEASEILAGLQGILPMDISVHQVDGGLKVYRWNSLDKNRFSKLLQIHKSKQQD
B2: Cdc6 (natural protein)
chain: MSAIPITPTKRIRRNLFDDAPATPPRPLKRKKLQFTDVTPESSPEKLQFGSQSIFLRTKALLQKSSELVNLNSSDGALPARTAEYEQVMNFLAKAISEHRSDSLYITGPPGTGKTAQLDMIIRQKFQSLPLSLSTPRSKDVLRHTNPNLQNLSWFELPDGRLESVAVTSINCISLGEPSSIFQKIFDSFQDLNGPTLQIKNMQHLQKFLEPYHKKTTFVVVLDEMDRLLHANTSETQSVRTILELFLLAKLPTVSFVLIGMANSLDMKDRFLSRLNLDRGLLPQTIVFQPYTAEQMYEIVIQKMSSLPTIIFQPMAIKFAAKKCAGNTGDLRKLFDVLRGSIEIYELEKRFLLSPTRGSLNSAQVPLTPTTSPVKKSYPEPQGKIGLNYIAKVFSKFVNNNSTRTRIAKLNIQQKLILCTIIQSLKLNSDATIDESFDHYIKAITKTDTLAPLQRNEFLEICTILETCGLVSIKKTKCKGKTKRFVDKIDVDLDMREFYDEMTKISILKPFLH
B3: Cdc6 N263A (sensor-1 mutant) (natural protein)
chain: MSAIPITPTKRIRRNLFDDAPATPPRPLKRKKLQFTDVTPESSPEKLQFGSQSIFLRTKALLQKSSELVNLNSSDGALPARTAEYEQVMNFLAKAISEHRSDSLYITGPPGTGKTAQLDMIIRQKFQSLPLSLSTPRSKDVLRHTNPNLQNLSWFELPDGRLESVAVTSINCISLGEPSSIFQKIFDSFQDLNGPTLQIKNMQHLQKFLEPYHKKTTFVVVLDEMDRLLHANTSETQSVRTILELFLLAKLPTVSFVLIGMAASLDMKDRFLSRLNLDRGLLPQTIVFQPYTAEQMYEIVIQKMSSLPTIIFQPMAIKFAAKKCAGNTGDLRKLFDVLRGSIEIYELEKRFLLSPTRGSLNSAQVPLTPTTSPVKKSYPEPQGKIGLNYIAKVFSKFVNNNSTRTRIAKLNIQQKLILCTIIQSLKLNSDATIDESFDHYIKAITKTDTLAPLQRNEFLEICTILETCGLVSIKKTKCKGKTKRFVDKIDVDLDMREFYDEMTKISILKPFLH

Molecular target: origin recognition complex (ORC) (S. cerevisiae, UniProt P54784;P32833;P54790;P54791;P50874;P38826)
Test: in vitro pre-RC assembly assay on origin DNA beads

Binding result, binds:
B1
B2
B3

Source: PMC3597701 (Nucleic Acids Research, 2013)
